Laboratory results from patent US20150374794A1 (Novo Nordisk, published 2015).
Numbered stars: 1 amine (or outer) side, 2 acyl side, 3 side chain; on linkers, the order of the positions; unused ones are H or OH. Square brackets hold non-standard residues; d marks the D form. Side chains are listed from the residue outwards. Ends that are not written are not given here. * marks the point of attachment. C18 diacid = O=C(O)CCCCCCCCCCCCCCCCC(=O)*; γGlu = O=C(O)[C@H](CCC(=O)[*:2])N[*:1]; AEEA = NCCOCCOCC(=O)O; Aib = CC(C)(N)C(=O)O

Key:
human GLP-1 receptor = human GLP-1 receptor (human, UniProt P43220 24-463); experiment: cell-based or functional assay
human glucagon receptor = human glucagon receptor (human, UniProt P47871 26-477); experiment: cell-based or functional assay
Chain of human glucagon receptor (P47871 26-477): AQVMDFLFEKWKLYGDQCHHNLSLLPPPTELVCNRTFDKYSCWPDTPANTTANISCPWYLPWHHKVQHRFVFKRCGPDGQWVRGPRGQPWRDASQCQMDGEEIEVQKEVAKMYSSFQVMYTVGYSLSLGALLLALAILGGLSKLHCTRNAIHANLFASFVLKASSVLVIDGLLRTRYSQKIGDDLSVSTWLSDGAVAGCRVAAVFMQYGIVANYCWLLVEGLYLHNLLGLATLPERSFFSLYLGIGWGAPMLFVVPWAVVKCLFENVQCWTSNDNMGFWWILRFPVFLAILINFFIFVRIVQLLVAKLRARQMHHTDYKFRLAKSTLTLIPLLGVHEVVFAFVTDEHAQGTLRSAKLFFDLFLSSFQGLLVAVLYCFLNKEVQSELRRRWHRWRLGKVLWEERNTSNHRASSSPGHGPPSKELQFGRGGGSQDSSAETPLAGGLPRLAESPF

| Binder | EC50 GLP-1R, CRE luciferase reporter gene assay in BHK cells (human GLP-1 receptor) | EC50 GlucR, CRE luciferase reporter gene assay in BHK cells (human glucagon receptor) |
| --- | --- | --- |
| H[Aib]QGTFTSDLSKYLDK([γGlu-γGlu-AEEA-AEEA-γGlu-C18 diacid])RRARDFVQWLLST-NH2 (N-terminus assumed; SMILES CC(C)C[C@H](NC(=O)[C@H](Cc1ccc(O)cc1)NC(=O)[C@H](CCCCN)NC(=O)[C@H](CO)NC(=O)[C@H](CC(C)C)NC(=O)[C@H](CC(=O)O)NC(=O)[C@H](CO)NC(=O)[C@@H](NC(=O)[C@H](Cc1ccccc1)NC(=O)[C@@H](NC(=O)CNC(=O)[C@H](CCC(N)=O)NC(=O)C(C)(C)NC(=O)[C@@H](N)Cc1c[nH]cn1)[C@@H](C)O)[C@@H](C)O)C(=O)N[C@@H](CC(=O)O)C(=O)N[C@@H](CCCCNC(=O)CC[C@H](NC(=O)CC[C@H](NC(=O)COCCOCCNC(=O)COCCOCCNC(=O)CC[C@H](NC(=O)CCCCCCCCCCCCCCCCC(=O)O)C(=O)O)C(=O)O)C(=O)O)C(=O)N[C@@H](CCCNC(=N)N)C(=O)N[C@@H](CCCNC(=N)N)C(=O)N[C@@H](C)C(=O)N[C@@H](CCCNC(=N)N)C(=O)N[C@@H](CC(=O)O)C(=O)N[C@@H](Cc1ccccc1)C(=O)N[C@H](C(=O)N[C@@H](CCC(N)=O)C(=O)N[C@@H](Cc1c[nH]c2ccccc12)C(=O)N[C@@H](CC(C)C)C(=O)N[C@@H](CC(C)C)C(=O)N[C@@H](CO)C(=O)N[C@H](C(N)=O)[C@@H](C)O)C(C)C) | 0.008 nM | 0.054 nM |
| H[Aib]HGTFTSDLSKYLESKRAREFVQWLLK([γGlu-γGlu-AEEA-AEEA-γGlu-C18 diacid])T-NH2 (N-terminus assumed; SMILES CC(C)C[C@H](NC(=O)[C@H](Cc1ccc(O)cc1)NC(=O)[C@H](CCCCN)NC(=O)[C@H](CO)NC(=O)[C@H](CC(C)C)NC(=O)[C@H](CC(=O)O)NC(=O)[C@H](CO)NC(=O)[C@@H](NC(=O)[C@H](Cc1ccccc1)NC(=O)[C@@H](NC(=O)CNC(=O)[C@H](Cc1c[nH]cn1)NC(=O)C(C)(C)NC(=O)[C@@H](N)Cc1c[nH]cn1)[C@@H](C)O)[C@@H](C)O)C(=O)N[C@@H](CCC(=O)O)C(=O)N[C@@H](CO)C(=O)N[C@@H](CCCCN)C(=O)N[C@@H](CCCNC(=N)N)C(=O)N[C@@H](C)C(=O)N[C@@H](CCCNC(=N)N)C(=O)N[C@@H](CCC(=O)O)C(=O)N[C@@H](Cc1ccccc1)C(=O)N[C@H](C(=O)N[C@@H](CCC(N)=O)C(=O)N[C@@H](Cc1c[nH]c2ccccc12)C(=O)N[C@@H](CC(C)C)C(=O)N[C@@H](CC(C)C)C(=O)N[C@@H](CCCCNC(=O)CC[C@H](NC(=O)CC[C@H](NC(=O)COCCOCCNC(=O)COCCOCCNC(=O)CC[C@H](NC(=O)CCCCCCCCCCCCCCCCC(=O)O)C(=O)O)C(=O)O)C(=O)O)C(=O)N[C@H](C(N)=O)[C@@H](C)O)C(C)C) |  | 0.0011 nM |
| H[Aib]HGTFTSDLSKYLESKRAREFVQWLLK([γGlu-γGlu-γGlu-C18 diacid])T-NH2 (N-terminus assumed; SMILES CC(C)C[C@H](NC(=O)[C@H](Cc1ccc(O)cc1)NC(=O)[C@H](CCCCN)NC(=O)[C@H](CO)NC(=O)[C@H](CC(C)C)NC(=O)[C@H](CC(=O)O)NC(=O)[C@H](CO)NC(=O)[C@@H](NC(=O)[C@H](Cc1ccccc1)NC(=O)[C@@H](NC(=O)CNC(=O)[C@H](Cc1c[nH]cn1)NC(=O)C(C)(C)NC(=O)[C@@H](N)Cc1c[nH]cn1)[C@@H](C)O)[C@@H](C)O)C(=O)N[C@@H](CCC(=O)O)C(=O)N[C@@H](CO)C(=O)N[C@@H](CCCCN)C(=O)N[C@@H](CCCNC(=N)N)C(=O)N[C@@H](C)C(=O)N[C@@H](CCCNC(=N)N)C(=O)N[C@@H](CCC(=O)O)C(=O)N[C@@H](Cc1ccccc1)C(=O)N[C@H](C(=O)N[C@@H](CCC(N)=O)C(=O)N[C@@H](Cc1c[nH]c2ccccc12)C(=O)N[C@@H](CC(C)C)C(=O)N[C@@H](CC(C)C)C(=O)N[C@@H](CCCCNC(=O)CC[C@H](NC(=O)CC[C@H](NC(=O)CC[C@H](NC(=O)CCCCCCCCCCCCCCCCC(=O)O)C(=O)O)C(=O)O)C(=O)O)C(=O)N[C@H](C(N)=O)[C@@H](C)O)C(C)C) |  | 0.0029 nM |
| H[Aib]QGTFTSDLSKYLDSRRARDFVQWLLSK([γGlu-γGlu-AEEA-AEEA-γGlu-C18 diacid])-NH2 (N-terminus assumed; SMILES CC(C)C[C@H](NC(=O)[C@H](CC(C)C)NC(=O)[C@H](Cc1c[nH]c2ccccc12)NC(=O)[C@H](CCC(N)=O)NC(=O)[C@@H](NC(=O)[C@H](Cc1ccccc1)NC(=O)[C@H](CC(=O)O)NC(=O)[C@H](CCCNC(=N)N)NC(=O)[C@H](C)NC(=O)[C@H](CCCNC(=N)N)NC(=O)[C@H](CCCNC(=N)N)NC(=O)[C@H](CO)NC(=O)[C@H](CC(=O)O)NC(=O)[C@H](CC(C)C)NC(=O)[C@H](Cc1ccc(O)cc1)NC(=O)[C@H](CCCCN)NC(=O)[C@H](CO)NC(=O)[C@H](CC(C)C)NC(=O)[C@H](CC(=O)O)NC(=O)[C@H](CO)NC(=O)[C@@H](NC(=O)[C@H](Cc1ccccc1)NC(=O)[C@@H](NC(=O)CNC(=O)[C@H](CCC(N)=O)NC(=O)C(C)(C)NC(=O)[C@@H](N)Cc1c[nH]cn1)[C@@H](C)O)[C@@H](C)O)C(C)C)C(=O)N[C@@H](CO)C(=O)N[C@@H](CCCCNC(=O)CC[C@H](NC(=O)CC[C@H](NC(=O)COCCOCCNC(=O)COCCOCCNC(=O)CC[C@H](NC(=O)CCCCCCCCCCCCCCCCC(=O)O)C(=O)O)C(=O)O)C(=O)O)C(N)=O) | 0.005 nM | 0.109 nM |
| H[Aib]QGTFTSDLSKYLDSRRARDFVQWLLSTK([γGlu-γGlu-AEEA-AEEA-γGlu-C18 diacid])-NH2 (N-terminus assumed; SMILES CC(C)C[C@H](NC(=O)[C@H](Cc1ccc(O)cc1)NC(=O)[C@H](CCCCN)NC(=O)[C@H](CO)NC(=O)[C@H](CC(C)C)NC(=O)[C@H](CC(=O)O)NC(=O)[C@H](CO)NC(=O)[C@@H](NC(=O)[C@H](Cc1ccccc1)NC(=O)[C@@H](NC(=O)CNC(=O)[C@H](CCC(N)=O)NC(=O)C(C)(C)NC(=O)[C@@H](N)Cc1c[nH]cn1)[C@@H](C)O)[C@@H](C)O)C(=O)N[C@@H](CC(=O)O)C(=O)N[C@@H](CO)C(=O)N[C@@H](CCCNC(=N)N)C(=O)N[C@@H](CCCNC(=N)N)C(=O)N[C@@H](C)C(=O)N[C@@H](CCCNC(=N)N)C(=O)N[C@@H](CC(=O)O)C(=O)N[C@@H](Cc1ccccc1)C(=O)N[C@H](C(=O)N[C@@H](CCC(N)=O)C(=O)N[C@@H](Cc1c[nH]c2ccccc12)C(=O)N[C@@H](CC(C)C)C(=O)N[C@@H](CC(C)C)C(=O)N[C@@H](CO)C(=O)N[C@H](C(=O)N[C@@H](CCCCNC(=O)CC[C@H](NC(=O)CC[C@H](NC(=O)COCCOCCNC(=O)COCCOCCNC(=O)CC[C@H](NC(=O)CCCCCCCCCCCCCCCCC(=O)O)C(=O)O)C(=O)O)C(=O)O)C(N)=O)[C@@H](C)O)C(C)C) | 0.02 nM | 1.21 nM |
